assay: soluble fraction after stress (log2 fold change); higher = more stays soluble; pooled small domains, quantitative proteomics; settings: stress: pH 4
Method in brief: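 Small protein domains from pooled custom libraries were exposed to pH 4, then quantified with high-throughput quantitative proteomics. The fold change in how much of each domain remains soluble is read as aggregation propensity. It is given as log2, with higher values meaning more stayed soluble.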

Row | Sequence | soluble fraction (log2)
1 | HMGIEIKLLMSFMTDSGRKVSLFVTDPREDVTETEIKQVMDLIIEKNIFAPNGEDIVSAKEAKIVQT | -1.2
2 | HMGIERTNADTSFSVNVYGKELIITSNKPLVVNIYAIDGTLVRTEQVTIGVNTVSGLPSGIYVVGQQKVVI | -0.752
3 | HMGIIVDMSKIKQMLQLSEAGHSNRKIALELGINKETVNNYMQLIRNGRLDIRQLLKMDDPELERRFHA | 0.23
4 | HMGIKLSDRQMQIVEIVKSQQPITSEQVAERLNLTRAALRSDLSILTMAGILEARPKVGYSLTGR | 0.14
5 | HMGILPDDVKLNIKEAKKIGFPIMLKAIHGGGGRGMMIVQSEDEFADAMKITKTEAKNSFGNGDLYFEKFF | 0.0153
6 | HMGITRQQALQQINQSASPKKILNASLGKRGSEFVWDIGYLSKSGKLNYVTYSFRSGEQLNAIKN | -0.504
7 | HMGIVAGGTQSIATLRAIDTTDAQLYPDKILINVEDAGLYRLDRQSTATDDGNQVIKPTVGVGRWLKMTS | 0.0998
8 | HMGIVVDGTMTLEGVAERYGMSVGELARVIGVPPEYSNERLGRLRKSYEFEMDDIRIYIIQKQ | -1.31
9 | HMGKAYMVPDVKNKSVNQAQLLLADKHMNGVVVDSSYVKELPAGIVLDQTPVGGMKVKEGRTVYLTINSD | 0.0742
10 | HMGKDIYLTSGWVEKFDELNEFSNSVDNYDRLNQFGMYENAIIGDTGVIKITDEMIFDLYEKIQVPVEAGP | -1.04
11 | HMGKEDLTAAIKKMTLNDKLDIHKIVANFQTNDSEEVITAVKWLMENNYLLKIKNNYTWNTKEK | 0.22
12 | HMGKHYLLKDDNGTITIYKILEDGTQEVYEKTEISTTYLPQTDNIGIKQGIRVNGDEALNELIENF | -0.821
13 | HMGKKGPELSENEKSIFSILSKSGSMDLTTLKEASGLSNKQWDKGIKGLGKHGLTKVIKTEDALLVEVV | 0.0105
14 | HMGKKYVPGMAVKLSAVPLYAASTSKVPSTHVTGTYYLWDDEVVRGRLRITNLKSRVGISGQVTGWIDKDR | 0.0244
15 | HMGKNIQAIRYKNNMTQDQVVAKLNLMGISITKSTYAKLETNRMNIKASELVALAKLFHTDINAFFSG | -0.0779
16 | HMGKNYYEILGITKSASEEQVRKAFRGLAMEWHPDRNRSADSEERFKEINEAYQVLIDPKKRQMYDQYGR | 0.349
17 | HMGKPSSEELEALGRRTLEENVDVVEEILGGRDPKGKKIKYLEGLMMRALRGQETPEAVRRTLEELIFK | 0.00684
18 | HMGKRGKEMQTAVLAILRASDRPYSAYELLESLKDIYPKIAPPTVYRALAALTQRGQIRRLESLNAFI | 0.22
19 | HMGKRKDFTYTGNYFSEYKNQTFPSLSSFLKLVGKYENYGTIKRRVRFGWDIDEAILRENIN | -0.231

Row | Sequence | soluble fraction (log2)
20 | HMGKSKAAQSSLVRSIMHQISDKNRGPMPLSEIIDRASIQSIDEAIVRSLVSRMKEQGEIYEPSLGTYEF | -0.163
21 | HMGKTIIQLATDYLIKNMQPKSLHDIESYVLTRKKIKKSSIGAILLSKPNIFGRTEDGLFGLRIWNNFQYT | -0.14
22 | HMGKTRSTDRTRRAILDAASDLMGKHGTSVSLARIAEAAGMSKGGLLHHFPSRNDLIRALGED | 0.396
23 | HMGKVNTRNRNEGKFYKNGKKKPANWEYRFEAAPVNGKRQQISDAGYPTEKAAYEAGIAAYEKYNSAGSVN | 0.0128
24 | HMGKVTILSNPVKDALVIMGLHNAETIDVRLFDNTGRLVMQGSQSRMDISSLSPGLYILQVNGKILKVIK | -0.222
25 | HMGLASEVKTEDVLNEEKYDFEPDLIGNNNEAIYQNKQTGSYVLFDRNQNKVTKVLSAGEVLNHSKYNE | 0.342
26 | HMGLDQNTLDRVDDINDTLATGIEIGPETRGTIEELNETLANGLKAGFDEETLARVDELLRVVEDGLK | -1.15
27 | HMGLGQRIKARREALGLSQARLGEAVGVSLQAVSNWERDEYLPDTARLPLIARALGLTPGQLME | 0.11
28 | HMGLKDTEVYMPDVRGLIEEEAQTKLKASFLTMKVSYTSSDEVKKGYVISQAPSADSVVLKGASVTVIVS | 0.112
29 | HMGLLVPELTAEENVSLAAMIAGVPRQQARSISADLLNRLGLGQMLDRRMGEMSGGQAQRVAIAPIYGKF | -0.129
30 | HMGLNVSYRMDGENVVETIIFSGATMIRTVTPTGTMTIKTIENGSTSTAKVNADYSVYKKIYEAQY | -1.03
31 | HMGLPLETVVTHATKLEIVRDGRVSGSIGLSAGVKVDVIALEGDNLQVRYRSLSGRVPVAHTGLAALA | -0.533
32 | HMGLPPIATGVNDNMSFSQAFAAARAEVGAGGAFEWHGRVYGTYYKNEWDGMSAQERHDFEIAAIRGS | -0.0114
33 | HMGLSIPLMGAKASDIEISTLNDEVQRKLKIIVKEQGHENLQRVVPLPSEAREIQAHFINGRLHLR | 0.214
34 | HMGLYPYSGTPADNQEANERRIFDIYSTHLERIFSDFSGATLRTKRLVLRLMQELVHSDPVRMAGILDEL | 0.1
35 | HMGMAQELMESRLTAVFTSGKDQLAVLQRKDGSTLKLGADSKPWRIESFDGRKAVFVSADQQRVERLL | -0.599
36 | HMGMGIGQIIKEKRTALKMTQNELAERLGVSQQSVTGWENNAAVPRESAVRGMMDIFGLSRNELFGEP | 0.0969
37 | HMGMMTLGQRIAQYRKAMGISQEELGGRLGVSRQAVSKWETDAAAPDMENLLALAREFGVSVAELTETP | -0.11

Reference: the domain aggregation screens of Martell et al. (2025)
